Measured values reported in a protein production outcome set (Wang et al. 2014).

Assay: label from the status in PepcDB records

Sequence	protein production
MDNKLPHYSRERLLGEGGMGKVYLAQDNQLQRQVAIKELTYQPKDDEVNHALKEARLLARVNHSNIIQIYNVHDEGDHISLVMEYFNSKTLTQFQQEAYTTLVQKLDLLQQLSAGLAAAHKNGVIHCDLKPSNILVNDQGQLKITDFGIALLASNESQNSEQTASNNPLQFGSLLFMSPEQIKLQAVDYRSDIFSFGIIAYQLMVGSHPFAYGNNGGSATDVAKRICEHTPEHAKNLMLNAPSALTDLLMEMLVKPLEQRTLTAEAIENRLKHIRTALLQAEISEQATMPLSSGSANIAGDDTGQYTQAVHTTLLSQNTQIVQPADNLQASWFKQNYKTVASIALLCLVMILFVGFYNTQEVETKQVVILKPTLADSSLMAPMQQDLVISAVEDALRQAVINTKNMYLISQREVNAITKEYPDDLNKLRQAVGASDIISTTLECDNSRCKVSFSRLVVNDNSSDNLSVKSEKNWLAPVDKFNAIFSTSQTQFASLFPEESEVNQSGLVQRPINENDYRNYIELYSQIKGQGEYSVESLTKLETLLTRSPYLYAAYGLFRETASNLYTDSRDEIHLKRLELVLQNSPPEYRYSVYHAIDSFFVAYKIKELDTAQQQIIEAKNKGASSFVLSELNAILFFSKGQYQKAADTFEEALVLRPSTTLLYNLAFSYWRMGDLSKAEDALNKMLEIIPGNYKAQQLQANIWLLQGKLELAITAYEKIVAALSNGRDLTNLSLAYALNKQYKKSLIYAKKAVDLSPKNRIRRLNLADIEFILGRVKSSNFNYKKVIDAPVDNNKYRYWLDIAQAQLQLNQQNLAIEALNKAKHLAPDNGEVAYTSALVYSVLGERVSAIFEVNKALANKVGSVWFNLPWFDSLCDDKEFELLMVKYNNQKRCRT	failed
MVKVSIIIPIYNVENYLDKCLDTAVNQTLGCIEIIGIDDGSTDKSRDILNKYAKKYSFIKIINKENGGLSSARNTGIINAKGEYIYFLDSDDYIEYDSMKICYEIATKNKLDIVSFDAESFVDGEGFTKKLKKYDRKDILDGNIKMGCEYFCELIKNKCYTASACLNFYRREFLIDNNLFFYDGILHEDELYTVKAYTLANKVRYIPYKLYFRRLRSNSITTQSISEKHLYGRLIAARESYRHYLGYKDVFDNDTNTCLLNHISNMYYFMLKDIYENKRIYNKRYIIEDKIINDIKSKKDIKSFKLDLQYRFPLIIYTIKKYLKKD	failed
MINRVPTNIITGFLGVGKTTAILHLLATKPAHEKWAVLVNEFGEIGIDGAIMSEQGAMIKEVPGGCLCCTAGVPMSVGINALLRQKPDRLIIEPTGLGHPKQVVATLISEQYQPYVDLKATIALMDPRHLSMDKYRSNQNFNDQLASADIVLGNKVDQCSSSDIDAFNDWVTDQTPAKTFSQLIKQGQFPIELLDMPRLVGHASTHIDSHHHHHAADEPQFQLAPQQPFLRKENRGQGYFSCGWLFGAEYQFNFDLLFQLLNDLTAERVKGVLNTDRGCYAFNVANGVVSVTEMSLDGFESRLEVIDSQLMPWSELESILLKIAGIPQALEHHHHHH	failed
MNTSFIKTLMTTNAGFAALALRIPTAIIFIAHGAQKLFGSFGGYGLEGTGQWMASIGLEPGYQLALLAGSAEFFGGIALLIGLLVRPAALMLSVTMVVAIFSVHFANGLFMTNNGYEFALALLAVSFSLMFSGAGKLSLDNLLAEKLA	failed
MMKCTALIVTFNRLEKLKKSVRETVKAGFSSIVIVNNGSSDGTREWLSSLSEPGITILNLKDNLGGAGGFKVGSQYICSYSNADWVFFYDDDAYPEINILKHFSLLDTSRYRIFASRVQDTYGRSCRMNLPFIRVPSTVFETIYYAMRPERFSPVRTQVTDVQTVSFVGMIIDRKVLNNHLNDIHDELFLYYDDFFFGYKLVLSGQKIRYSPEIKFIHDISIHGKCICPEWKVYYLCRNLLLLRKLLPVPRIFSVLSIVLRLSKYLAILPWQRKKFRYLYFIWQGILHGLKGISGKYH	failed
MSMPNHPNLTTADAKKILNKFNCLDIAPILKPSEKESVRRALILITKLSDYQILGICADTADEGLLAMKTYSHALGYEVPIDLPVVEGPVYIKLNGKNGLCYLDSYAGHHRGVLVSCQSYYEGGINEMYGHLPLDLFV	not failed
MPNQVLFCITKMRYEEKRIYHYLEESGLSIKIMLDSSNLDEVVAHNSDYCLCIVRVMSQHRAFRIAEYMEALGIPTLNSSRAIQICADKAIQALILANRDVIKQPHFSILRNYEDLSNFNGKMVVKPVSSSWGRGISLIENEDALTTWKISHQELDIQNQNLPYLIQEFIDKPNYDVRIVIINTKPVVAFKRVSANNWKTNTHLGATVVPIVIDDSINKIVTEIIKVVGPGIYGLDLMKNRQNEWIFCEINQNPEFAHSWKIHHVDVAEKIAQYVSSKVKVGQKNASTHLEHHHHHH	failed
MPSSSASLIPSLRQASRQMVRELGFMQATLAATDYPPSAVHALLEIGQGNALTAGDLVTLLGLEKSSVSRLVRKLVDAGEISEQAHDQDARSKKLQLSARGRQTLAGIDRFAQAQVAAALAHLSPAQQRSACAGIADYARALRAVRLGDVPEPPERCSIARGYRPGVIGRIAEMHARYYADLAGFGQPFESLVARDMAELMGRLHNPRNEVWVALQGERIVGSIAIDGEGEGGEALLRCFILDEAARGQGLGRRLLAEALGFCDQWGFAATRLWTFKGLDAARALYEEQGFVLVQEQEGEQWGAPVTEQCFVRARVAQRDTIR	failed
MKEDIVSGTVKRVERHGIIVEVVAGKLDALIPRDQMIPRENFRSGDRIRALFLRVEEIGNTGRKQVILSRTSGLEHHHHHH	not failed
MEDFNMESDSFEDFWKGEDLSNYSYSSTLPPFLLDAAPCEPESLEINKYFVVIIYALVFLLSLLGNSLVMLVILYSRVGRSVTDVYLLNLALADLLFALTLPIWAASKVNGWIFGTFLCKVVSLLKEVNFYSGILLLACISVDRYLAIVHATRTLTQKRYLVKFICLSIWGLSLLLALPVLLFRRTVYSSNVSPACYEDMGNNTANWRMLLRILPQSFGFIVPLLIMLFCYGFTLRTLFKAHMGQKHRAMRVIFAVVLIFLLCWLPYNLVLLADTLMRTQVIQETCERRNHIDRALDATEILGILHSCLNPLIYAFIGQKFRHGLLKILAIHGLISKDSLPKDSRPSFVGSSSGHTSTTL	not failed
MMNNMDSIINYIYEGDYFIVTSHISPDGDNIGSTLSMYYTLKNLGKNVYYVLDDEAPLNLRFLVEGVKIYKSNEFNMKNYSLIALDCGDKMRICVSDEIKNNASKLICIDHHASNDSYGDLNYVDIDASSTCELVYNLLVRFQQIKDINIINEDIATCLYTGLVTDTGNFSYSNVHASSFEMAKNLLVLGAQKNTIIQNIYQSN	failed
MDLFNLLDGITFWHWLAFGFVLLAVELLGTAGYFLWLGLSALLVGALLAVLPFGWQLQWLSFATFSLLTTWLWWRRQWSRDKQDDQTRDLNQKYKQLIGRSVILEEDFSIGLNRIRIADTTWSAQCEQNIRAGTRVKIVAIDGIILIVEPISE	failed
MDRMDKAAKINIINANVRNAQTGDYYYNPYKIVNKTFTDTDGKQVTLKIGITGVLPTQILVWDKANLEGKVTVDDPMEAVKTIVPQMKAAGADFILVAAHSGIGDNEYTKNEENEGYQIAGIEGVDAVATGHSHADFPNGDGTSFYAKYPGVDDVNGLINGKPVVMAGKFGDHLGIMDVKLTYTDGKWKVVNSKAKLEKIDTKSDIADKALIDMAAHDHDGTILTMFVRKLVRPLPQSLAILLKFRTIHLFKS	failed
AIAEHKEVVLLLLLFLKSGQGEPLDDYVNTQGPSLFSVTKKQLGAGSREECAAKCEEDKEFTCRAFQYHSKEQQCVIMAENRKSSIIIRMRDAVLFEK	not failed
MYGRKGYQLIKDFATGEKGQLKPFNSKLFDETIEECDQNHHLIQSLIRKMQQEGLDVQNNRNADHYGALIHHLALIRNKRCLMAYVYNRAEIVRDLAWRVGLELLDLPSEIQEKLTTLEKEYFKNHSVALKSYMGKVGIELNVDMVPPKDPYIKVRILDDIDEGIVLSDKTTNFARHSMHFLKRTDAEPYIARGQMEELTG	failed
MKVIETKYNGKLEVAEDRLIAFDQGIPAFEDEKEFVLLPFAAGTPYYTLQSTKTVDLAFIIVNPFSFFPEYRVKLPEATIVQLNITNENDVAIFSLLTVKEPFSETTVNLQAPIVINANKQMGKQLVLGDTAYDRKQPLFQKELVLAKEAK	not failed
MNLFAPPALFRHFHRMAWLAALFTASTILFGSFVRLSDAGMSCPDWPTCYGRVTWPQTSDEANTHVASKIRPLESHKAWREQVHRFLAGALGVEVLVLSLLAVRRRRMGIAQVVSAAVLVALSIPLYMSGWHATAFGMAITGEAILLLAALRWSNIDLARAAVLTLAVVIFQALLGMWTVTLLLKPIVVMGHLLGGMLMFSLLVWMAWRATHLPITLADASRLKWLLRLGVAVLGLQIALGGWVSANYAALACGGGSWSADNFPRCVSQWWPPHDFREGFTLWRGIGVDYEGGVLDGAARIAIQMAHRLWAIATALYLWWLAWRLSRSPGMRVWAGALALLVAVQVTLGMLNVKLALPLEVSLMHNGGAVALLFVLVSLLARLRAPE	failed
MPLTMLSEGKGCRIKEVRAGLELKRRLTEMGFTPSSSVRLIGCERGNLLVNVNGARYALGKGMAMKIMVEPDPCEGVELGLEHHHHHH	failed
MPTTKQLKDTELPLNFFEHSSLETIELFIQHLTEAMILVNANGFIRSCNQRSAELLDCPQVSLKGQDWRNFLTEHHQARYDNLLSHDVQLGTNCGQPVQHPAQETTLICASGKAKDVELSISYIPGHEPMFVMVMHDLTHHKAELEHHHHHH	not failed
MSLSEGTFEVGKNTFLLNGEPFVVKAAEIHYPRIPKEYWEHRIKMCKALGMNTICLYVFWNFHEPEEGRYDFAGQKDIAAFCRLAQENGMYVIVRPGPYVCAEWEMGGLPWWLLKKKDIKLREQDPYYMERVKLFLNEVGKQLADLQISKGGNIIMVQVENEYGAFGIDKPYISEIRDMVKQAGFTGVPLFQCDWNSNFENNALDDLLWTINFGTGANIDEQFKRLKELRPDTPLMCSEFWSGWFDHWGAKHETRSAEELVKGMKEMLDRNISFSLYMTHGGTSFGHWGGANFPNFSPTCTSYDYDAPINESGKVTPKYLEVRNLLGNYLPEGETLPEIPDSIPTIAIPTIKMTEMAVLFDNLPHPKESEDIRTMEAFDQGWGSILYRTSLSASDKEQTLLITEAHDWAQVFLNGKKLATLSRLKGEGVVKLPPLKEGDRLDILVEAMGRMNFGKGIYDWKGITEKVELQSDKGVELVKDWQVYTIPVDYSFARDKQYKQQENAENQPAYYRSTFNLNELGDTFLNMMNWSKGMVWVNGHAIGRYWEIGPQQTLYVPGCWLKKGENEIIILDMAGPSKAETEGLRQPILDVQRGNGAYAHRKMGEGHHHHHH	not failed
MVLEIGLPPLHVGFIMAYSLLAASLSIFLGLALAEFDVVAHAVLAGYYAGLFFPMSVYTNFFTAAASGAPRPAKEYLPLLLAFILAAVAPLHGSTSTLATLFLLSQAFLLYYMALQAGRFRRDALARFSALAPPISGTGASLILLSSSQLGFLDALMSLTLAFSTPVPLLMAPMAIGASIYGLGPARGKEAIIRLSPALTAIPASILSVLTLSINPYLLPLSLYLVVMRPWRIVSELISVRRPKPPQLYLLSVHAATLAAIVSSLILASNSNIVEAGHAIMIGVIAPHALLHSIVRGGEIPFTRRPRSWTPIPPLLLAASTPLRFASKEASLALALLALSIHVASILDPHPRNIIPRAFRVEGGKQQSATTGG	failed
VLLAITTGLVASLVNAKAYKGAEIFTNDAYLYGRYEIRMRVANASGILSTFFTYKNGSEVGNTFWEEIDIEVFGKNNATQWQSNIILGSSRPTIHTEEIHTADTSLADAYHTYVVEWTPDYVAWFLDGVEVRRITGTSTVTSLTNAQSLRFNIWSSESVPWVGAWDDSVLPVYQFVNYIDYKAYNATTKTFEGGWRDDFNNFDSSRWGKANWSFDMNRVDFAPENALVKDGILVLALTKENATGFNGTPPADEPASSSSSVAASSTPASSIAASSIAASVAASSVAVATSSVAASKASGGGSGGGAINGMWLLMLGSFVLLGWVHNQRQSHQQHQ	failed
